According to patent US20040029228A1:

Tests used:
Experiment in all cases: cell-based or functional assay
[1] = target: human CRF2-4 (IL10Rb) (human)
[2] = target: zcytoR19 and IL10Rb (CRF2-4) co-expressed on cells (heterodimeric receptor) (human)
[3] = target: T1, human zcytor19 (Zyctor19) cytokine receptor (human)
T1 sequence (Q8IU57 1-520, looked up): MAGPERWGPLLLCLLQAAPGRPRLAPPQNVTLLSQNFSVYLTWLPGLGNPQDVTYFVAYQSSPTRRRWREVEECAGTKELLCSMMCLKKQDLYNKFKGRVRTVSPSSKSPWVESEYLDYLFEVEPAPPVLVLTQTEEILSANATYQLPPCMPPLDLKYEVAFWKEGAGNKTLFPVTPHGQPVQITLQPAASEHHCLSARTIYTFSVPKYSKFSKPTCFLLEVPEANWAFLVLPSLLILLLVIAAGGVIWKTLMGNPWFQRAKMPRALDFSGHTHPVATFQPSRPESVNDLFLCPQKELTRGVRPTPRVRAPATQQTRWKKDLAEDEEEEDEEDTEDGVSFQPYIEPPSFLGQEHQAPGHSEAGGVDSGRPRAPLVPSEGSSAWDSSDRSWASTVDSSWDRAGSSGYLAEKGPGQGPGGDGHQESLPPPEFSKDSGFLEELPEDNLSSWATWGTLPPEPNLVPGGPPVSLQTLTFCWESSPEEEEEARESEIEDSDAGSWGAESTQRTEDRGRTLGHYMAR

Chain of human CRF2-4 (IL10Rb) (human) (Q08334 whole entry): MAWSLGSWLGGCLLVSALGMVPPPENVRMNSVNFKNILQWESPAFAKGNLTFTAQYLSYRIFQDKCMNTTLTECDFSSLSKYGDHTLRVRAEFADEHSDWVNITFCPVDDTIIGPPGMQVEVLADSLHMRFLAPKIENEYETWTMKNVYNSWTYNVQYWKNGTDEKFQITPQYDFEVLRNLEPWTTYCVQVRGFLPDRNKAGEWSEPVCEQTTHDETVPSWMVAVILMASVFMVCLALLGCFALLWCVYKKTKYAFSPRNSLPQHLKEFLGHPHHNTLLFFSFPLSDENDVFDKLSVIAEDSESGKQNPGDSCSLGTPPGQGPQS

B1: zcyto22 (ligand)
chain: MTGDCMPVLVLMAAVLTVTGAVPVARLRGALPDARGCHIAQFKSLSPQELQAFKRAKDALEESLLLKDCKCRSRLFPRTWDLRQLQVRERPVALEAELALTLKVLEATADTDPALGDVLDQPLHTLHHILSQLRACVSRQGPGTQIQPQPTAGPRTRGRLHHWLHRLQEAPKKESPGCLEASVTFNLFRLLTRDLNCVASGDLCV
[1]
  ISRE-luciferase fold induction, wild-type 293 cells, Zcyto22 0.01 ng/ml (fold induction): 0.9
  ISRE-luciferase fold induction, wild-type 293 cells, Zcyto22 0.01 ng/ml + IL10Rb neutralizing Antibody (fold induction): 0.9
  ISRE-luciferase fold induction, wild-type 293 cells, Zcyto22 0.1 ng/ml (fold induction): 1.2
  ISRE-luciferase fold induction, wild-type 293 cells, Zcyto22 0.1 ng/ml + IL10Rb neutralizing Antibody (fold induction): 0.8
  ISRE-luciferase fold induction, wild-type 293 cells, Zcyto22 1 ng/ml (fold induction): 1.8
  ISRE-luciferase fold induction, wild-type 293 cells, Zcyto22 1 ng/ml + IL10Rb neutralizing Antibody (fold induction): 0.8
  ISRE-luciferase fold induction, wild-type 293 cells, Zcyto22 10 ng/ml (fold induction): 8
  ISRE-luciferase fold induction, wild-type 293 cells, Zcyto22 10 ng/ml + IL10Rb neutralizing Antibody (fold induction): 1
  ISRE-luciferase fold induction, wild-type 293 cells, Zcyto22 100 ng/ml (fold induction): 11
  ISRE-luciferase fold induction, wild-type 293 cells, Zcyto22 100 ng/ml + IL10Rb neutralizing Antibody (fold induction): 1.2
[2]
  ISRE-luciferase fold induction, BHK cells transfected with zcytoR19 and IL10Rb (CRF2-4), zcyto22 0.001 ng/ml (fold induction): 1.3
  ISRE-luciferase fold induction, BHK cells transfected with zcytoR19 and IL10Rb (CRF2-4), zcyto22 0.01 ng/ml (fold induction): 1.7
  ISRE-luciferase fold induction, BHK cells transfected with zcytoR19 and IL10Rb (CRF2-4), zcyto22 0.1 ng/ml (fold induction): 2.4
  ISRE-luciferase fold induction, BHK cells transfected with zcytoR19 and IL10Rb (CRF2-4), zcyto22 1 ng/ml (fold induction): 2.7
  ISRE-luciferase fold induction, BHK cells transfected with zcytoR19 and IL10Rb (CRF2-4), zcyto22 10 ng/ml (fold induction): 2.7
  ISRE-luciferase fold induction, BHK cells transfected with zcytoR19 and IL10Rb (CRF2-4), zcyto22 100 ng/ml (fold induction): 2.2
  ISRE-luciferase fold induction, BHK cells transfected with zcytoR19 and IL10Rb (CRF2-4), zcyto22 1000 ng/ml (fold induction): 2.2
[3]
  ISRE-luciferase fold induction, 293 cells transfected with ISRE-Luc./Zcytor19, Zcyto22 125 ng/ml (fold induction): 104
  ISRE-luciferase fold induction, BHK cells transfected with zcytoR19 alone, zcyto22 0.001 ng/ml (fold induction): 1.2
  ISRE-luciferase fold induction, BHK cells transfected with zcytoR19 alone, zcyto22 0.01 ng/ml (fold induction): 1.2
  ISRE-luciferase fold induction, BHK cells transfected with zcytoR19 alone, zcyto22 0.1 ng/ml (fold induction): 1.1
  ISRE-luciferase fold induction, BHK cells transfected with zcytoR19 alone, zcyto22 1 ng/ml (fold induction): 1.5
  ISRE-luciferase fold induction, BHK cells transfected with zcytoR19 alone, zcyto22 10 ng/ml (fold induction): 1.9
  ISRE-luciferase fold induction, BHK cells transfected with zcytoR19 alone, zcyto22 100 ng/ml (fold induction): 2
  ISRE-luciferase fold induction, BHK cells transfected with zcytoR19 alone, zcyto22 1000 ng/ml (fold induction): 1.8
